The values that follow come from article PMC9687680 (2022).

pKd: −log10 of the molar value. A value given as a limit tells only on which side of the number the result lay.

Series [1] concerns the target T1, CD133 on Huh7 cells (human) (UniProt O43490).
T1 sequence: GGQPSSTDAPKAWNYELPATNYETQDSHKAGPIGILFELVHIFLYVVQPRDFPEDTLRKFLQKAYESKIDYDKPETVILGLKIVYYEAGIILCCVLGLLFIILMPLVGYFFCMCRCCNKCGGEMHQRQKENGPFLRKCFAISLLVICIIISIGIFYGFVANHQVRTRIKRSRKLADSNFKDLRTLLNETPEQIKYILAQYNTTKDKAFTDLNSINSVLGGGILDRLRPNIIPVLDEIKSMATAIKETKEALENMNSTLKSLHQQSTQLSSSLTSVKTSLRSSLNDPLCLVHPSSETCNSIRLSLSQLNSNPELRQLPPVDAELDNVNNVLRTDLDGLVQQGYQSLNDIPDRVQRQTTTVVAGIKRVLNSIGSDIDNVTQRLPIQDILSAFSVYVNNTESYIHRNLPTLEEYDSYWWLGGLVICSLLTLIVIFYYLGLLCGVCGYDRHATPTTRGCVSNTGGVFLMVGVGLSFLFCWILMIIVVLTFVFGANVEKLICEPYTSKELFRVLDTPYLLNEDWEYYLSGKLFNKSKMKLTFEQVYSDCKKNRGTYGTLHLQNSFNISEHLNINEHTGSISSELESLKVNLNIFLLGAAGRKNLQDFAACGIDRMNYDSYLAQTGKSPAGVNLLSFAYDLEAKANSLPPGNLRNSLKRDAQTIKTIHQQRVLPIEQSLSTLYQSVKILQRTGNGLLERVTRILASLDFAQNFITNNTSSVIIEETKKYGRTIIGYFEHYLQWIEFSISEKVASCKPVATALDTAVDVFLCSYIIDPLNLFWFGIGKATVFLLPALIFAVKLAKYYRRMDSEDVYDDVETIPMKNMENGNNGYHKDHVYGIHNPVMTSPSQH
Put plainly: flow cytometry (cell binding). The settings on record: Huh7 cells, 37 C, Aptamer folded in PBS with 2.5 mM Mg2+ (85 C 5 min, RT, 37 C 15 min), binding to cells in PBS-based blocking buffer, 30 min, CD133-negative HEK293T cells ….

For series [2], the target named is T2, CD133 on PLC/PRF/5 cells (human) (UniProt O43490).
T2 sequence: T1 sequence
Put plainly: flow cytometry (cell binding). To be noted: PLC/PRF/5 cells, 37 C, Aptamer folded in PBS with 2.5 mM Mg2+ (85 C 5 min, RT, 37 C 15 min), binding to cells in PBS-based blocking buffer, 30 min, CD133-negative HEK293T cells ….

Series [3] deals with CD133 aptamer (hybrid RNA-DNA, 10-bp DNA GC stem) (DNA:RNA, aptamer, 2'-fluoro on all pyrimidines (C and U) of the RNA part; 5-methyl-dC (printed 5'-methyl-dC) in the DNA stem) CGCGCGCCGCUCCUACAUAGCGGCGCGCG
Put plainly: ITC. To be noted: Mg2+ 2.5 mM, PBS (Na+, K+), 25 °C, DOX 100 µM injected, aptamer 2 µM or 100 µM (supplement).

Series [4] has the same test system. Put plainly: DOX fluorescence quenching. To be noted: DOX 10 µM, aptamer 1-10 µM, 30 min; >90% quenching at aptamer:DOX 0.27.
Setting [5] is: 2'-O-methyl instead of 2'-fluoro on pyrimidines (C and U).
Where [6] appears, read: apparent Kd, 2'-fluoro on all pyrimidines, 5-methyl-dC in stem, hexylamine cap at 3' end.

By pKd is commonly meant −log10 of the Kd, conventionally taken in molar units. Take “CGCGCGCCGCUCCUACAUAGCGGCGCGCG [negative control CD133 aptamer (2'-OMe)]”: the pKd in series [1] (setting [5]) and in series [2] (setting [5]) was under 6.00 in each case.
The KD is the free concentration of one partner at which half of the binding sites on the other are occupied at equilibrium, for simple one-to-one binding. Higher therefore signals lower affinity. Turning to `COc1cccc2c1C(=O)c1c(O)c3c(c(O)c1C2=O)C[C@@](O)(C(=O)CO)C[C@@H]3O[C@H]1C[C@H](N)[C@H](O)[C@H](C)O1`, in series [3], the dissociation constant (KD) is 634 nM. In addition, the binding result in series [4] is listed as “yes”.
Take “CGCGCGCCGCUCCUACAUAGCGGCGCGCG [CD133 aptamer (RNA loop, DNA GC stem)]”: the pKd in series [1] (setting [6]) was 7.57; in series [2] (setting [6]), 7.96.
